Experimental findings from patent US20240067690A1 are described below.

Where two headings read alike, the source gives them in different places.

What all share (assay): cell-based or functional assay
Test [1] concerns the target low affinity (IL2Rb/g) IL2 receptor on YT/STAT5-Luc/IL2Ra KO reporter cells (human (human T/NK cell leukemia YT cell line)) (UniProt P14784).
In test [2] the target is high affinity (IL2Ra/b/g) IL2 receptor on YT/STAT5-Luc/hIL2Ra reporter cells (human; human (human T/NK cell leukemia YT cell line)) (UniProt P01589).
Test [3] has the same target. The source holds these as a separate data set.
Test [4] deals with low affinity (IL2Rb/g) IL2 receptor on YT/STAT5-Luc/IL2Ra KO reporter cells (human (human T/NK cell leukemia YT cell line)) (UniProt P14784). This is another data set of the same source.

Chain of UniProt P01589 (P01589 22-272, chain 1 of 3): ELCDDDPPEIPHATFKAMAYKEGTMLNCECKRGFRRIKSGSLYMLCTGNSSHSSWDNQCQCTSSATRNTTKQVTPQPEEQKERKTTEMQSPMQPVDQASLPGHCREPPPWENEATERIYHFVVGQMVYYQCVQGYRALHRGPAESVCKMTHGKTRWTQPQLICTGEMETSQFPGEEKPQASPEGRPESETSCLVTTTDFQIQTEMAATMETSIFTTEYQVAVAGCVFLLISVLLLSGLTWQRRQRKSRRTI
Chain of UniProt P01589 (P14784 27-551, chain 2 of 3, further chain): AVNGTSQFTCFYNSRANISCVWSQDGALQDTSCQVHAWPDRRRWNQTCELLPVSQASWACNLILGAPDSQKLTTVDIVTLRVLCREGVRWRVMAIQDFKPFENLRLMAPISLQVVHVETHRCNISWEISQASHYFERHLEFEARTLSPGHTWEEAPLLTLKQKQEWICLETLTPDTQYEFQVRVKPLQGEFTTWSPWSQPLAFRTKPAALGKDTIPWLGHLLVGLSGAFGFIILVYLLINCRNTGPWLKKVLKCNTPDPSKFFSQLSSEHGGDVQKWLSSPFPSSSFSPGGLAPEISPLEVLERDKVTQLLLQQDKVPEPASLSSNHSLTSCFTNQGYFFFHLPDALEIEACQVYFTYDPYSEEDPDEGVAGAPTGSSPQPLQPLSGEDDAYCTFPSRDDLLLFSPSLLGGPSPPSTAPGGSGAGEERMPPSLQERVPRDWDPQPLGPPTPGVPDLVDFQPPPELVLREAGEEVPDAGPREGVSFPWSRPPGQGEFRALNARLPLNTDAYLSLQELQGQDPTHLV
Chain of UniProt P01589 (P31785 23-369, chain 3 of 3, further chain): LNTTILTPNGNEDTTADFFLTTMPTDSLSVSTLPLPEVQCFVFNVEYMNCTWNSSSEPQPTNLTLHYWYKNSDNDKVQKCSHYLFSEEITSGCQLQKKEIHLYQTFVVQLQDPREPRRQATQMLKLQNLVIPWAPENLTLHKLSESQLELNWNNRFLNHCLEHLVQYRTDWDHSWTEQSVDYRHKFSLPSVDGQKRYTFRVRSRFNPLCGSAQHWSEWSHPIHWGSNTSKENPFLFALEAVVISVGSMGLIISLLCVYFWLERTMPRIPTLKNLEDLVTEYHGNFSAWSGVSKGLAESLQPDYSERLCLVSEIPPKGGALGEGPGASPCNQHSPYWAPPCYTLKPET
Chain of UniProt P14784 (P14784 27-551, chain 1 of 2): as the sequence (P14784 27-551, chain 2 of 3, further chain) above
Chain of UniProt P14784 (P31785 23-369, chain 2 of 2, further chain): as the sequence (P31785 23-369, chain 3 of 3, further chain) above

Consider IL2-Fc (REGN8189) (Fc fusion), for which the EC50, STAT5-luciferase reporter assay, YT/Stat5-Luc/IL2Ra KO cells in test [1] was determined as 0.542 nM.
In the case of “IL2-mmh (REGN7183), monomeric human IL-2 with a C-terminal myc-myc-hexahistidine (mmh) tag (ligand; in M (unit assumed))”, in test [2], the EC50, STAT5-luciferase reporter assay, YT/Stat5-Luc/hIL2Ra cells (M (unit not given)) stood at 1.65e-11.
Same read-out and setting: for “IL2-Fc (REGN8189) (Fc fusion; in M (unit assumed))” the value was 1.69e-11.
For the molecule “IL2-mmh (REGN7183), monomeric human IL-2 with a C-terminal myc-myc-hexahistidine (mmh) tag (ligand)”, the EC50, STAT5-luciferase reporter assay, YT/Stat5-Luc/IL2Ra KO cells in test [1] was 0.622 nM.
In test [2], “IL2(E68C)-mmh (REGN7184), dimeric human IL-2 (E68C) with a C-terminal myc-myc-hexahistidine (mmh) tag (ligand)” showed an EC50, STAT5-luciferase reporter assay, YT/Stat5-Luc/hIL2Ra cells (M (unit not given)) of 5.63e-10 and a fold less potency than IL2-mmh (REGN7183), STAT5-luciferase reporter assay, YT/STAT5-Luc/hIL2Ra cells of 34 fold. In test [1], the EC50, STAT5-luciferase reporter assay, YT/Stat5-Luc/IL2Ra KO cells was determined as 0.847 nM.

B1: IL2(3m)-Fc (REGN8190) (Fc fusion)
chain: APTSSSTKKTQLQLEHLLLDLQMILNGINNYKNPKLTRMLTAKFAMPKKATELKHLQCLEEELKPLEEVLNGAQSKNFHLRPRDLISNINVIVLELKGSETTFMCEYADETATIVEFLNRWITFCQSIISTLTGGGGSESKYGPPCPPCPAPPVAGPSVFLFPPKPKDTLMISRTPEVTCVVVDVSQEDPEVQFNWYVDGVEVHNAKTKPREEQFNSTYRVVSVLTVLHQDWLNGKEYKCKVSNKGLPSSIEKTISKAKGQPREPQVYTLPPSQEEMTKNQVSLTCLVKGFYPSDIAVEWESNGQPENNYKTTPPVLDSDGSFFLYSRLTVDKSRWQEGNVFSCSVMHEALHNHYTQKSLSLSLGK
Turning to B1, in test [3], the EC50, STAT5-luciferase reporter assay, YT/Stat5-Luc/hIL2Ra cells (M (unit not given)) was determined as 5.17e-11 and the fold less potency than IL2-Fc (REGN8189), STAT5-luciferase reporter assay, YT/STAT5-Luc/hIL2Ra cells stood at 3 fold. This molecule gave an EC50, STAT5-luciferase reporter assay, YT/Stat5-Luc/IL2Ra KO cells in test [4] of 0.628 nM.
